The record followed here is patent US20200190473A1, “Plasmacytoid Dendritic Cells Having Immune Tolerance, and Method for Producing Same” (QURATIS INC., priority 2017, published 2020).

Test [1] deals with TLR2 receptor. It counts as binding, mouse. As to conditions: 5 μg/ml, 2 hours; compared to untreated group.
Test [2] has as its target TLR2 receptor (Mus musculus, UniProt Q9QUN7). It counts as binding.
The test system of test [3] is plasmacytoid dendritic cells. In kind it is cell-based, mouse. The settings on record: pDC differentiated with TLR agonist on day 3, stimulated with ODN1826 (1 μg/ml), 24 hours, ELISA; vs conventional pDC. A general note: An ELISA detects its analyte on a solid surface through an enzyme-linked reagent.

Sequence of TLR2 receptor (Mus musculus, UniProt Q9QUN7) (Q9QUN7 25-784): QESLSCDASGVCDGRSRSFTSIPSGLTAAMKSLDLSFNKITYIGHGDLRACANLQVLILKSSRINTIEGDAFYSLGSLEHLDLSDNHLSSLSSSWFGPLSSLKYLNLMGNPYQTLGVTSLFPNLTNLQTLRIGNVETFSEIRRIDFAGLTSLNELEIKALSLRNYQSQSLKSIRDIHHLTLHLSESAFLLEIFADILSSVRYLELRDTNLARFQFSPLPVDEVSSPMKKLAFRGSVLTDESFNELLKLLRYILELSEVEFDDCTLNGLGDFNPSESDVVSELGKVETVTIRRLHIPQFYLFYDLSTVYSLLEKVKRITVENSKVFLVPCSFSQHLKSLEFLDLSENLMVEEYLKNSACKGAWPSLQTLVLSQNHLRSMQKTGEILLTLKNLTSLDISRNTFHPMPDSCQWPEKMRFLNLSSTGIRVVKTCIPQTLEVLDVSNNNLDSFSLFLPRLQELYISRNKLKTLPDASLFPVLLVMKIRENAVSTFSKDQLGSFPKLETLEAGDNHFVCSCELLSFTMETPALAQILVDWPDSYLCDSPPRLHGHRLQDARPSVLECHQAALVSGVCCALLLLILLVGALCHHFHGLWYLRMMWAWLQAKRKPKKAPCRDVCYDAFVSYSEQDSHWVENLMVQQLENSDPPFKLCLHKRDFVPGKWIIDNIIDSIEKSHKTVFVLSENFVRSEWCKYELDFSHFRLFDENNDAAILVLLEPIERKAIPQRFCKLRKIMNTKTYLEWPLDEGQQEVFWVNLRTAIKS

B1: Rv1411c protein: His-labeled protein derived from M tuberculosis, confirmed as TLR2 agonist (protein, UniProt P9WK45 27-236, looked up)
Lipoarabinomannan carrier …: CSSGSKPSGGPLPDAKPLVEEATAQTKALKSAHMVLTVNGKIPGLSLKTLSGDLTTNPTAATGNVKLTLGGSDIDADFVVFDGILYATLTPNQWSDFGPAADIYDPAQVLNPDTGLANVLANFADAKAEGRDTINGQNTIRISGKVSAQAVNQIAPPFNATQPVPATVWIQETGDHQLAQAQLDRGSGNSVQMTLSKWGEKVQVTKPPVS
modifications: His tag
notes: His-labeled protein derived from M tuberculosis, confirmed as TLR2 agonist
Consider B1, for which, in test [1], the “binding strength to TLR2 knockout-derived dendritic cells (TLR2−/−)” value is reported as “the same as that in the untreated experimental group”. In test [2], the “binding to TLR2 receptor” value is on record as “binds to the TLR2 receptor” and the “binding to wild-type dendritic cells (WT)” value was “increased binding”. In test [3], the “expression level of IFN-α” value is “drastically reduced in a concentration-dependent manner”, the “expression level of IFN-β” value is “drastically reduced in a concentration-dependent manner”, the “expression level of IL-10” value was “marked increase in a concentration-dependent manner” and the “expression level of IL-12p70” value was “drastically reduced in a concentration-dependent manner”. The “expression level of TNF-α” value in test [3] is reported as “drastically reduced in a concentration-dependent manner”.
